B1: Ferredoxin--NADP reductase, chloroplastic (Spinacia oleracea (Spinach)), P00455 (parent)
chain: MTTAVTAAVSFPSTKTTSLSARSSSVISPDKISYKKVPLYYRNVSATGKMGPIRAQIASDVEAPPPAPAKVEKHSKKMEEGITVNKFKPKTPYVGRCLLNTKITGDDAPGETWHMVFSHEGEIPYREGQSVGVIPDGEDKNGKPHKLRLYSIASSALGDFGDAKSVSLCVKRLIYTNDAGETIKGVCSNFLCDLKPGAEVKLTGPVGKEMLMPKDPNATIIMLGTGTGIAPFRSFLWKMFFEKHDDYKFNGLAWLFLGVPTSSSLLYKEEFEKMKEKAPDNFRLDFAVSREQTNEKGEKMYIQTRMAQYAVELWEMLKKDNTYFYMCGLKGMEKGIDDIMVSLAAAEGIDWIEYKRQLKKAEQWNVEVY

Variants of: B1
Details: with fer1_spiol PETF

Variant	effect of a mutation on the interaction
K88Q	decreasing interaction
